Experimental data published in article PMC3300031 (Nucleic Acids Research, 2011).
Positions count from the first letter of the chain named. Names may count otherwise.

B1: Pf NurA ΔN26 dimeric interface mutant (first 26 residues deleted) (domain or fragment, Pyrococcus furiosus, UniProt Q8U1N8 27-451, looked up)
chain: EQIRNIINSWKPLPSPEKSSIYAVDGSRSVSRLSGTVIYFLSALAVGSGKQLRLSYANAIKSNYGTSDQIVRMQMETLENMLGYLAYRKLEGEKRAILMDGTLTGSLVRPPVYPEDIRSLNVMRALIGESDFENLLNEFLEKLRDHYRKVEEHLEKNGNYDSPILTDNVVEKLRKKYIDTKVIAYGSGKVKVKIPRKALGYSPRVIPIEVLESSRGKSVDELLQELDEEKVELYLGKDDIYDALHMTLSYIEYLYSIDKLLEVKNLAYIAKSFYTKTLARTLGVEIVDTALLDAVIRTLIGHEKEGYLEIEHAVVPPKWSFPDFLLSKFRNIEKLIDKGIHLAYVRFEQGDVIYMLQSTTNIEKILPLILHHKAGGYLRPLQLAHHGVKISYKEARHTLEALINALRNRDPALKIFVKYGRSPLE
B2: Pyrococcus furiosus NurA (Pf NurA), wild type (enzyme, UniProt Q8U1N8 1-451, looked up)
chain: MRLLSKQSIERITKILLDELENVRENEQIRNIINSWKPLPSPEKSSIYAVDGSRSVSRLSGTVIYFLSALAVGSGKQLRLSYANAIKSNYGTSDQIVRMQMETLENMLGYLAYRKLEGEKRAILMDGTLTGSLVRPPVYPEDIRSLNVMRALIGESDFENLLNEFLEKLRDHYRKVEEHLEKNGNYDSPILTDNVVEKLRKKYIDTKVIAYGSGKVKVKIPRKALGYSPRVIPIEVLESSRGKSVDELLQELDEEKVELYLGKDDIYDALHMTLSYIEYLYSIDKLLEVKNLAYIAKSFYTKTLARTLGVEIVDTALLDAVIRTLIGHEKEGYLEIEHAVVPPKWSFPDFLLSKFRNIEKLIDKGIHLAYVRFEQGDVIYMLQSTTNIEKILPLILHHKAGGYLRPLQLAHHGVKISYKEARHTLEALINALRNRDPALKIFVKYGRSPLE
B3: Pf NurA R11A/I12E/S60Y dimeric interface mutant (enzyme, Pyrococcus furiosus)
chain: B2 chain with R11A, I12E, S60Y

Key:
SEC = biological target: the molecule itself; assay: SEC
AUC + SEC = biological target: the molecule itself; assay: AUC + SEC

Protein	stoichiometry N (SEC)	stoichiometry N (AUC + SEC)
B1	4	–
B2	–	2
B3	~2	–
